Molecular target: calcineurin (recombinant or partly purified, phosphoserine phosphatase assay)
Experiment: cell-based or functional assay

Question: What does the source list for “purified human erythrocyte CuZnSOD (Sigma Aldrich) (from UniProt P00441 2-154) (enzyme)”?
Answer: Percentage of FK506 inhibitable RII-phosphopeptide activity after 20 min compared with the activity at 0 min; constant activity (1.67 U): 57%; Percentage of FK506 inhibitable RII-phosphopeptide activity after 20 min compared with the activity at 0 min; constant protein (3 ug): 57%; protection of calcineurin after calcium induced redox inactivation: 50 to 100%

Question: “recombinant human CuZnSOD mutation A4V (from UniProt P00441 2-154) (enzyme)” was tested. Which Percentage of FK506 inhibitable RII-phosphopeptide activity after 20 min compared with the activity at 0 min; constant activity (1.67 U) did it give?
Answer: The Percentage of FK506 inhibitable RII-phosphopeptide activity after 20 min compared with the activity at 0 min; constant activity (1.67 U) was 8%.

Question: And the Percentage of FK506 inhibitable RII-phosphopeptide activity after 20 min compared with the activity at 0 min; constant protein (3 ug)?
Answer: The Percentage of FK506 inhibitable RII-phosphopeptide activity after 20 min compared with the activity at 0 min; constant protein (3 ug) was 22%.

Question: What does the source list for “recombinant human CuZnSOD mutation D90A (from UniProt P00441 2-154) (enzyme)”?
Answer: Percentage of FK506 inhibitable RII-phosphopeptide activity after 20 min compared with the activity at 0 min; constant activity (1.67 U): 32%; Percentage of FK506 inhibitable RII-phosphopeptide activity after 20 min compared with the activity at 0 min; constant protein (3 ug): 42%

Question: “recombinant human CuZnSOD mutation G93A (from UniProt P00441 2-154) (enzyme)” was tested. Which Percentage of FK506 inhibitable RII-phosphopeptide activity after 20 min compared with the activity at 0 min; constant activity (1.67 U) did it give?
Answer: Its Percentage of FK506 inhibitable RII-phosphopeptide activity after 20 min compared with the activity at 0 min; constant activity (1.67 U) is 21%.

Question: What about the Percentage of FK506 inhibitable RII-phosphopeptide activity after 20 min compared with the activity at 0 min; constant protein (3 ug) of the same substance?
Answer: The Percentage of FK506 inhibitable RII-phosphopeptide activity after 20 min compared with the activity at 0 min; constant protein (3 ug) was 16%.

Question: With “recombinant human wild-type CuZnSOD (from UniProt P00441 2-154) (enzyme)” as the substance, how does the Percentage of FK506 inhibitable RII-phosphopeptide activity after 20 min compared with the activity at 0 min; constant activity (1.67 U) read?
Answer: The Percentage of FK506 inhibitable RII-phosphopeptide activity after 20 min compared with the activity at 0 min; constant activity (1.67 U) was 56%.

Question: What about the Percentage of FK506 inhibitable RII-phosphopeptide activity after 20 min compared with the activity at 0 min; constant protein (3 ug) of the same substance?
Answer: Its Percentage of FK506 inhibitable RII-phosphopeptide activity after 20 min compared with the activity at 0 min; constant protein (3 ug) is 70%.

Question: And the protection of calcineurin after calcium induced redox inactivation?
Answer: The protection of calcineurin after calcium induced redox inactivation was 50 to 100%.
